Results reported in patent publication US20050043234A1 (published 2005).
Where “and” joins values, the source holds several entries; their conditions need not be identical. Equal values may be shown once.

B3: zFGF5 (ligand)
chain: EENVDFRIHVENQTRARDDVSRKQLRLYQLYSRTSGKHIQVLGRRISARGEDGDKYAQLLVETDTFGSQVRIKGKETEFYLCMNRKGKLVGKPDGTSKECVFIEKVLENNYTALMSAKYSGWYVGFTKKGRPRKGPKTRENQQDVHFMKRYPKGQPELQKPFKYTTVTKRSRRIRPTHPA

Tests used:
Experiment in all cases: cell-based or functional assay
[1] = target: B3
[2] = target: FGFR2α-IIIc
[3] = target: FGFR3α-IIIc
[4] = target: FGFR1α-IIIc
[5] = target: FGFR2α-IIIb
[6] = target: FGFR1α-IIIb
[7] = target: FGFR2α-IIIc; remark: listed apart in the source
[8] = target: FGFR3α-IIIc; remark: listed apart in the source
[9] = target: FGFR3α-IIIb

B1: FGFR3α-IIIc/Fc (Fc fusion, not shown: a dimerising Fc or GST; small tags and cut ends)
chain: ESLGTEQRVVGRAAEVPGPEPGQQEQLVFGSGDAVELSCPPPGGGPMGPTVWVKDGTGLVPSERVLVGPQRLQVLNASHEDSGAYSCRQRLTQRVLCHFSVRVTDAPSSGDDEDGEDEAEDTGVDTGAPYWTRPERMDKKLLAVPAANTVRFRCPAAGNPTPSISWLKNGREFRGEHRIGGIKLRHQQWSLVMESVVPSDRGNYTCVVENKFGSIRQTYTLDVLERSPHRPILQAGLPANQTAVLGSDVEFHCKVYSDAQPHIQWLKHVEVNGSKVGPDGTPYVTVLKTAGANTTDKELEVLSLHNVTFEDAGEYTCLAGNSIGFSHHSAWLVVLPAEEELVEADEAGSVYAG
[1]
  Cell Proliferation (percent of control), BAF3/FGFR3α-IIIc cells with zFGF5, soluble receptor at 0 fold-excess: 100 percent of control
  Cell Proliferation (percent of control), BAF3/FGFR3α-IIIc cells with zFGF5, soluble receptor at 0.8 fold-excess: 85 percent of control
  Cell Proliferation (percent of control), BAF3/FGFR3α-IIIc cells with zFGF5, soluble receptor at 1.6 fold-excess: 66 percent of control
  Cell Proliferation (percent of control), BAF3/FGFR3α-IIIc cells with zFGF5, soluble receptor at 3.2 fold-excess: 37 percent of control
  Cell Proliferation (percent of control), BAF3/FGFR3α-IIIc cells with zFGF5, soluble receptor at 6.3 fold-excess: 5 percent of control
  Cell Proliferation (percent of control), BAF3/FGFR3α-IIIc cells with zFGF5, soluble receptor at 12.5 fold-excess: 1 percent of control
  Cell Proliferation (percent of control), BAF3/FGFR3α-IIIc cells with zFGF5, soluble receptor at 25 fold-excess: 0.2 percent of control
  Cell Proliferation (percent of control), BAF3/FGFR3α-IIIc cells with zFGF5, soluble receptor at 50 fold-excess: 0 percent of control
  Cell Proliferation (percent of control), BAF3/FGFR3α-IIIc cells with zFGF5, soluble receptor at 100 fold-excess: 0 percent of control

B2: FGFR1α-IIIc/Fc (Fc fusion, not shown: a dimerising Fc or GST; small tags and cut ends)
chain: RPSPTLPEQAQPWGAPVEVESFLVHPGDLLQLRCRLRDDVQSINWLRDGVQLAESNRTRITGEEVEVQDSVPADSGLYACVTSSPSGSDTTYFSVNVSDALPSSEDDDDDDDSSSEEKETDNTKPNRMPVAPYWTSPEKMEKKLHAVPAAKTVKFKCPSSGTPNPTLRWLKNGKEFKPDHRIGGYKVRYATWSIIMDSVVPSDKGNYTCIVENEYGSINHTYQLDVVERSPHRPILQAGLPANKTVALGSNVEFMCKVYSDPQPHIQWLKHIEVNGSKIGPDNLPYVQILKTAGVNTTDKEMEVLHLRNVSFEDAGEYTCLAGNSIGLSHHSAWLTVLEALEERPAVMTSPLYLE
[1]
  Cell Proliferation (percent of control), BAF3/FGFR3α-IIIc cells with zFGF5, soluble receptor at 0 fold-excess: 100 percent of control
  Cell Proliferation (percent of control), BAF3/FGFR3α-IIIc cells with zFGF5, soluble receptor at 7.5 fold-excess: 92 percent of control
  Cell Proliferation (percent of control), BAF3/FGFR3α-IIIc cells with zFGF5, soluble receptor at 15.4 fold-excess: 96 percent of control
  Cell Proliferation (percent of control), BAF3/FGFR3α-IIIc cells with zFGF5, soluble receptor at 31 fold-excess: 99 percent of control
  Cell Proliferation (percent of control), BAF3/FGFR3α-IIIc cells with zFGF5, soluble receptor at 62.5 fold-excess: 104 percent of control
  Cell Proliferation (percent of control), BAF3/FGFR3α-IIIc cells with zFGF5, soluble receptor at 125 fold-excess: 101 percent of control
  Cell Proliferation (percent of control), BAF3/FGFR3α-IIIc cells with zFGF5, soluble receptor at 250 fold-excess: 100 percent of control
  Cell Proliferation (percent of control), BAF3/FGFR3α-IIIc cells with zFGF5, soluble receptor at 500 fold-excess: 102 percent of control
  Cell Proliferation (percent of control), BAF3/FGFR3α-IIIc cells with zFGF5, soluble receptor at 1000 fold-excess: 92.3 percent of control

## B3
[2]
  EC50 of cell proliferation response: ~10 ng/mL and ~20 ng/mL
[3]
  EC50 of cell proliferation response: ~1 ng/mL and ~2 ng/mL
[4]
  Alamar Blue Units (cell proliferation), zFGF5 at 1.6 ng/ml: 2.6 Alamar Blue Units
  Alamar Blue Units (cell proliferation), zFGF5 at 3.1 ng/ml: 4.2 Alamar Blue Units
  Alamar Blue Units (cell proliferation), zFGF5 at 6.2 ng/ml: 14.2 Alamar Blue Units
  Alamar Blue Units (cell proliferation), zFGF5 at 12.5 ng/ml: 29.9 Alamar Blue Units
  Alamar Blue Units (cell proliferation), zFGF5 at 25 ng/ml: 86 Alamar Blue Units
  Alamar Blue Units (cell proliferation), zFGF5 at 50 ng/ml: 224 Alamar Blue Units
  Alamar Blue Units (cell proliferation), zFGF5 at 100 ng/ml: 488 Alamar Blue Units
  Alamar Blue Units (cell proliferation), zFGF5 at 200 ng/ml: 912 Alamar Blue Units
[5]
  Alamar Blue Units (cell proliferation), zFGF5 at 1.6 ng/ml: 0.2 Alamar Blue Units
  Alamar Blue Units (cell proliferation), zFGF5 at 3.1 ng/ml: 0.06 Alamar Blue Units
  Alamar Blue Units (cell proliferation), zFGF5 at 6.2 ng/ml: 0 Alamar Blue Units
  Alamar Blue Units (cell proliferation), zFGF5 at 12.5 ng/ml: 0.4 Alamar Blue Units
  Alamar Blue Units (cell proliferation), zFGF5 at 25 ng/ml: 0.2 Alamar Blue Units
  Alamar Blue Units (cell proliferation), zFGF5 at 50 ng/ml: 0.5 Alamar Blue Units
  Alamar Blue Units (cell proliferation), zFGF5 at 100 ng/ml: 1.3 Alamar Blue Units
  Alamar Blue Units (cell proliferation), zFGF5 at 200 ng/ml: 1.3 Alamar Blue Units
[6]
  Alamar Blue Units (cell proliferation), zFGF5 at 1.6 ng/ml: 0 Alamar Blue Units
  Alamar Blue Units (cell proliferation), zFGF5 at 3.1 ng/ml: 1.7 Alamar Blue Units
  Alamar Blue Units (cell proliferation), zFGF5 at 6.2 ng/ml: 1.3 Alamar Blue Units
  Alamar Blue Units (cell proliferation), zFGF5 at 12.5 ng/ml: 0 Alamar Blue Units
  Alamar Blue Units (cell proliferation), zFGF5 at 25 ng/ml: 10.9 Alamar Blue Units
  Alamar Blue Units (cell proliferation), zFGF5 at 50 ng/ml: 0 Alamar Blue Units
  Alamar Blue Units (cell proliferation), zFGF5 at 100 ng/ml: 0 Alamar Blue Units
  Alamar Blue Units (cell proliferation), zFGF5 at 200 ng/ml: 0 Alamar Blue Units
[7]
  Alamar Blue Units (cell proliferation), zFGF5 at 1.6 ng/ml: 241 Alamar Blue Units
  Alamar Blue Units (cell proliferation), zFGF5 at 3.1 ng/ml: 480 Alamar Blue Units
  Alamar Blue Units (cell proliferation), zFGF5 at 6.2 ng/ml: 715 Alamar Blue Units
  Alamar Blue Units (cell proliferation), zFGF5 at 12.5 ng/ml: 977 Alamar Blue Units
  Alamar Blue Units (cell proliferation), zFGF5 at 25 ng/ml: 1310 Alamar Blue Units
  Alamar Blue Units (cell proliferation), zFGF5 at 50 ng/ml: 1520 Alamar Blue Units
  Alamar Blue Units (cell proliferation), zFGF5 at 100 ng/ml: 1720 Alamar Blue Units
  Alamar Blue Units (cell proliferation), zFGF5 at 200 ng/ml: 1790 Alamar Blue Units
[8]
  Alamar Blue Units (cell proliferation), zFGF5 at 1.6 ng/ml: 1400 Alamar Blue Units
  Alamar Blue Units (cell proliferation), zFGF5 at 3.1 ng/ml: 2000 Alamar Blue Units
  Alamar Blue Units (cell proliferation), zFGF5 at 6.2 ng/ml: 2580 Alamar Blue Units
  Alamar Blue Units (cell proliferation), zFGF5 at 12.5 ng/ml: 3200 Alamar Blue Units
  Alamar Blue Units (cell proliferation), zFGF5 at 25 ng/ml: 3760 Alamar Blue Units
  Alamar Blue Units (cell proliferation), zFGF5 at 50 ng/ml: 3960 Alamar Blue Units
  Alamar Blue Units (cell proliferation), zFGF5 at 100 ng/ml: 4120 Alamar Blue Units
  Alamar Blue Units (cell proliferation), zFGF5 at 200 ng/ml: 4200 Alamar Blue Units
[9]
  Alamar Blue Units (cell proliferation), zFGF5 at 1.6 ng/ml: 0 Alamar Blue Units
  Alamar Blue Units (cell proliferation), zFGF5 at 3.1 ng/ml: 0 Alamar Blue Units
  Alamar Blue Units (cell proliferation), zFGF5 at 6.2 ng/ml: 0 Alamar Blue Units
  Alamar Blue Units (cell proliferation), zFGF5 at 12.5 ng/ml: 0 Alamar Blue Units
  Alamar Blue Units (cell proliferation), zFGF5 at 25 ng/ml: 1.4 Alamar Blue Units
  Alamar Blue Units (cell proliferation), zFGF5 at 50 ng/ml: 19 Alamar Blue Units
  Alamar Blue Units (cell proliferation), zFGF5 at 100 ng/ml: 189 Alamar Blue Units
  Alamar Blue Units (cell proliferation), zFGF5 at 200 ng/ml: 472 Alamar Blue Units
